Here are results for one molecule from PMC1810427, “MLN51 Stimulates the RNA-Helicase Activity of eIF4AIII”.

One data set concerns the target MLN51 SELOR (UniProt O15234 137-283). The data set is described as follows: SPR; no nucleotide; 5 mM Mg2+; SPR (Biacore 2000): 40 mM Tris-HCl pH 7.8, 50 mM NaCl, 4 mM DTT, 5 mM MgCl2, 0.002% Tween 20, 30 ul/min, 10-160 nM protein; temperature not stated. The following applies: protein: recombinant; tags: GST cleaved off (PreScission); label: 5' biotin; single strand.

A further data set concerns the target eIF4AIII;MLN51 SELOR (human;human?, UniProt P38919;O15234 1-411;137-283, |). The data set is described as follows: SPR; AMPPNP; 5 mM Mg2+; SPR (Biacore 2000): 40 mM Tris-HCl pH 7.8, 50 mM NaCl, 4 mM DTT, 5 mM MgCl2, 0.002% Tween 20, 30 ul/min, 10-160 nM protein; temperature not stated. The following applies: protein: recombinant;recombinant; tags: N-terminal His6;GST cleaved off (PreScission); copies: 1;1; label: 5' biotin; single strand. For orientation: SPR reads the build-up and loss of mass on a sensor chip optically.

The target in data set [1] is eIF4AIII;MLN51 SELOR;Y14;Magoh (human;human;human, UniProt P38919;O15234;Q9Y5S9;P61326 1-411;137-283;50-174;1-146, |||). The data set is described as follows: SPR; ATP; 5 mM Mg2+; SPR (Biacore 2000): 40 mM Tris-HCl pH 7.8, 50 mM NaCl, 4 mM DTT, 5 mM MgCl2, 0.002% Tween 20, 30 ul/min, 10-160 nM protein; temperature not stated. The following applies: protein: recombinant;recombinant;recombinant;recombinant; tags: N-terminal His6;GST cleaved off (PreScission);none;N-terminal His6; copies: 1;1;1;1; label: 5' biotin; single strand.
Chain of eIF4AIII;MLN51 SELOR;Y14;Magoh (P38919 whole entry, chain 1 of 4, other chains not shown): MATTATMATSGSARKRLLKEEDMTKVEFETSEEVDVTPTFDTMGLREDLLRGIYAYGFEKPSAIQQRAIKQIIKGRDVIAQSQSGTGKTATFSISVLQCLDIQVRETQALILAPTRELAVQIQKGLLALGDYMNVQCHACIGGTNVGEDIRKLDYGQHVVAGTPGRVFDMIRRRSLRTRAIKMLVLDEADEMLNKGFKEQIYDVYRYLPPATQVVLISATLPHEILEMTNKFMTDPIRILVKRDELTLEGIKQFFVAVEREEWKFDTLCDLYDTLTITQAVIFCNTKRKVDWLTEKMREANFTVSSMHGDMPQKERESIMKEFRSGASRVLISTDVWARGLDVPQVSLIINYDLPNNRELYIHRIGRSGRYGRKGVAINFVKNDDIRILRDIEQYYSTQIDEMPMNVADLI
Chain of eIF4AIII;MLN51 SELOR;Y14;Magoh (O15234 137-283, chain 2 of 4, other chains not shown): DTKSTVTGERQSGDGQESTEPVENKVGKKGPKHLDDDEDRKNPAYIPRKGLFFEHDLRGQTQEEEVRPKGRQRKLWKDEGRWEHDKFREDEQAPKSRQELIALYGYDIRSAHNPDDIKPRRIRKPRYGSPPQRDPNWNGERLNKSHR
Chain of eIF4AIII;MLN51 SELOR;Y14;Magoh (P61326 whole entry, chain 4 of 4, other chains not shown): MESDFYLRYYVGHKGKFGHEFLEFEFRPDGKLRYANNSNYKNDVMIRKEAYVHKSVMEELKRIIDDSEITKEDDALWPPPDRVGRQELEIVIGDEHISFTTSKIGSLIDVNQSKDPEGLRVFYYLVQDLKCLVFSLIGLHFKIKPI

In the next data set the target is Y14;Magoh (human;human, UniProt Q9Y5S9;P61326 50-174;1-146, |). The data set is described as follows: SPR; no nucleotide stated; 5 mM Mg2+; SPR (Biacore 2000): 40 mM Tris-HCl pH 7.8, 50 mM NaCl, 4 mM DTT, 5 mM MgCl2, 0.002% Tween 20, 30 ul/min, 10-160 nM protein; temperature not stated. To be noted: protein: recombinant;recombinant; tags: none;N-terminal His6; copies: 1;1; label: 5' biotin; single strand.
Chain of Y14;Magoh (P61326 whole entry, chain 2 of 2, other chains not shown): as the sequence (P61326 whole entry, chain 4 of 4, other chains not shown) above

Chain of MLN51 SELOR (O15234 137-283): as the sequence (O15234 137-283, chain 2 of 4, other chains not shown) above
Chain of eIF4AIII;MLN51 SELOR (P38919 whole entry, chain 1 of 2): as the sequence (P38919 whole entry, chain 1 of 4, other chains not shown) above
Chain of eIF4AIII;MLN51 SELOR (O15234 137-283, chain 2 of 2): as the sequence (O15234 137-283, chain 2 of 4, other chains not shown) above

B1: 35-mer ssRNA (ssRNA)
RNA: AUGUCAUUCGAGUACAGUCUGUUCAGCUAGUCUCC
Consider B1, for which the Kd in the data set with MLN51 SELOR is approximately 1000 nM; with eIF4AIII;MLN51 SELOR, approximately 10 nM; in data set [1], approximately 10 nM; with Y14;Magoh, approximately 2000 nM.

Broadly, the Kd is the free concentration of one partner at which half of the binding sites on the other are occupied at equilibrium, for simple one-to-one binding.
